Reference: PMC2115445
Several values for one entry are separate records, joined by “and”; a condition that tells them apart may be missing. Equal values may be shown once. One block for each substance: values may come before it.

What was measured:
[1] = target: human erythrocyte ankyrin (human) (UniProt P16157); test: co-sedimentation
[2] = target: Na,K-ATPase (alpha-beta heterodimer) of dog kidney membranes (dog (endogenous in canine kidney)) (UniProt P50997); test: co-sedimentation
[3] = target: human erythrocyte ankyrin (human) (UniProt P16157); test: pull-down

Sequence of human erythrocyte ankyrin (human) (P16157 whole entry): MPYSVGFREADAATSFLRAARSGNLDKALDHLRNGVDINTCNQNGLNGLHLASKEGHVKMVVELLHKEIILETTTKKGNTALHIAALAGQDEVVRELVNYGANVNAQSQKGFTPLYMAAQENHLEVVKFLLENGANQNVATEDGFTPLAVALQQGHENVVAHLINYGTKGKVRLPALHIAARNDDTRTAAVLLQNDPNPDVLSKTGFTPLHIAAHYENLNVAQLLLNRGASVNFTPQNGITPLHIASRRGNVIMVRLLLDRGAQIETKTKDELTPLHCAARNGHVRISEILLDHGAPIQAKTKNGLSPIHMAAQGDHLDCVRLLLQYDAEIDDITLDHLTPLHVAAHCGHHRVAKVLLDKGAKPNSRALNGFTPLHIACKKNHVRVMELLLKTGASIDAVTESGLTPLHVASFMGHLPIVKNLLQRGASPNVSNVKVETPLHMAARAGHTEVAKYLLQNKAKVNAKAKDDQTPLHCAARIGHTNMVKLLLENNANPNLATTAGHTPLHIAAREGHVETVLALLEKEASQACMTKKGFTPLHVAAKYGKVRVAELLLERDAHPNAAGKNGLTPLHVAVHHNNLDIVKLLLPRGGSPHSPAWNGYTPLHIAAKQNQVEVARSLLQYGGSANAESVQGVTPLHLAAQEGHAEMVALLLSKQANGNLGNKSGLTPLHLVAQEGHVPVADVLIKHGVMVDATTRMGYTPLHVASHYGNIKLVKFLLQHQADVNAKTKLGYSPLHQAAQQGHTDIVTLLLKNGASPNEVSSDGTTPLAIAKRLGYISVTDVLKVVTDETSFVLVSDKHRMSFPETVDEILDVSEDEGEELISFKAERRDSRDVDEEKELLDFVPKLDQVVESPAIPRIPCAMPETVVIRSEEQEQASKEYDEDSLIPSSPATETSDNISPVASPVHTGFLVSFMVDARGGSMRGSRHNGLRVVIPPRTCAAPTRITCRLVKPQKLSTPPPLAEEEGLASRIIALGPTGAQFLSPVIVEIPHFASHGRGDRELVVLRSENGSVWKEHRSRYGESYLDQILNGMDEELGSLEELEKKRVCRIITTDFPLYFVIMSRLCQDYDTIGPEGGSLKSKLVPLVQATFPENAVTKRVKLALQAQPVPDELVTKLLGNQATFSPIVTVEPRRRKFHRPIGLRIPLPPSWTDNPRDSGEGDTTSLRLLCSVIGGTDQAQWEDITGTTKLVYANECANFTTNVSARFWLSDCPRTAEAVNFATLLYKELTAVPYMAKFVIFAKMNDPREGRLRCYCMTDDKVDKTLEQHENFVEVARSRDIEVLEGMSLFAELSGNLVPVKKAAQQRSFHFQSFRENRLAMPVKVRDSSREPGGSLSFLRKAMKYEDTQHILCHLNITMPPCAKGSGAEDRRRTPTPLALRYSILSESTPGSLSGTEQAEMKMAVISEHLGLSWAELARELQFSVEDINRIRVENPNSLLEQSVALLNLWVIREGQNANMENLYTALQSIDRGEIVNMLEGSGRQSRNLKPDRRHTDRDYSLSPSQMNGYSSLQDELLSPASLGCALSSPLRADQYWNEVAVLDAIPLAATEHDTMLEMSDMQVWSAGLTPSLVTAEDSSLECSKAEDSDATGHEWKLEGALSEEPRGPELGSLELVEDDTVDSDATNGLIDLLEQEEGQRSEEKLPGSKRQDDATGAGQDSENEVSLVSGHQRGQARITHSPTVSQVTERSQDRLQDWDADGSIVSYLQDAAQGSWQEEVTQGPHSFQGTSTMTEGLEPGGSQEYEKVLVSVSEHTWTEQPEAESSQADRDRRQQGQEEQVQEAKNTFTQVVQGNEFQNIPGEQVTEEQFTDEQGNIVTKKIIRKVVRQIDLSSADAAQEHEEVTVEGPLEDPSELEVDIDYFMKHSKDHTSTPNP

- Ki [1]: 3500 nM
Substance: 43-kD cytoplasmic domain of human erythrocyte band 3 (domain or fragment)

- Kd [2]: 2590 nM and 2570 nM
- stoichiometry N (molecules of Na,K-ATPase per ankyrin) [2]: 3.5 to 4.8
- stoichiometry N ([2]; scale: molecules of Na,K-ATPase alpha-beta heterodimer per ankyrin): 2.93 and 5.05
Substance: human erythrocyte ankyrin (from UniProt P16157 1-1881) (natural protein)

- fold bound to immobilized ankyrin against immobilized BSA [3]: 17 fold
Substance: Na,K-ATPase (alpha-beta heterodimer) of dog kidney membranes (from UniProt P50997 1-1021; P06583 1-303) (complex)
